Measured values reported in US20130302399A1 (ALDERBIO, published 2013).

B1: Ab23 (antibody, human IgG1, kappa, N297A, V domains shown)
VH: QSLEESGGDLVKPGASLTLTCKASGFSFSSGYYMCWVRQAPGKGLEWIACIYAGSGGSTFFANWAKGRFTISKTSSTTVTLQMTSLTAADTATYFCARDGGYAGYGYAFFNLWGPGTLVTVSS
VL: DVVMTQTPASVSEPVGGTVTIKCQASERIYSGLAWYQQKPGQPPKLLIYGASTLASGVPSRFKGSGSGTDFTLTISDLECDDAAIYYCQCTYYGSSYPNVFGGGTEVVVKR
notes: also called antibody Ab23
B2: Ab24 (antibody, human IgG1, kappa, N297A, V domains shown)
VH: QSLEESGGDLVKPGASLTLTCKASGFSFSSGYYMCWVRQAPGKGLEWIACIYAGSGGSTFFANWAKGRFTISKTSSTTVTLQMTSLTAADTATYFCARDGGYAGYGYAFFNLWGPGTLVTVSS
VL: DVVMTQTPASVSEPVGGTVTIKCQASERIYSGLAWYQQKPGQPPKLLIYGASTLASGVPSRFKGSGSGTDFTLTISDLECDDAAIYYCQATYYGSSYPNVFGGGTEVVVKR
notes: also called antibody Ab24
B3: Ab21 (antibody, human IgG1, kappa, N297A, V domains shown)
VH: QSVEESGGRLVTPGTPLTLTCTVSGFSLSSYAMNWVRQAPGKGLEWIGAIRSSGATFFASWVNGRFTISKTSTTVDLKITSPTPEDTATYFCARDTNDGWYINRLDLWGPGTLVTVSS
VL: AAVLTQTPSPVSAAVGGTVSISCQSSKSVYSNYLSWFQQKPGQPPKFLIYKASTLASGVPSRFKGSGSGTQFTLTISDVQCDDAATYYCAGGDTNISDNAFGGGTEVVVKR
notes: also called antibody Ab21
B4: Ab22 (antibody, human IgG1, kappa, N297A, V domains shown)
VH: EVQLVESGGGLVQPGGSLRLSCAASGFSLSSYAMNWVRQAPGKGLEWIGAIRSSGATFFASSVNGRFTISRDNSKNTVYLQMNSLRAEDTAVYYCARDTNDGWYINRLDLWGQGTLVTVSS
VL: AVLTQSPSTLSASVGDRVTITCQSSKSVYSNYLSWFQQKPGKAPKFLIYKASTLASGVPSRFSGSGSGTEFTLTISSLQPDDFATYYCAGGDTNIADNAFGGGTKVEIKR
notes: also called antibody Ab22

These binders were tested against T1, human Proprotein Convertase Subtilisin-like/Kexin type 9 (human, UniProt Q8NBP7 31-692, limits assumed) (assay: SPR (ProteOn XPR36), biotinylated antibody on neutravidin chip, human PCSK9 as analyte, 1:1 fit, mean of 4 densities).
T1 construct: Biotinylated in the ELISAs; unlabelled analyte in BLI and SPR; also called human PCSK9; PCSK9
T1 sequence (Q8NBP7 31-692 limits assumed): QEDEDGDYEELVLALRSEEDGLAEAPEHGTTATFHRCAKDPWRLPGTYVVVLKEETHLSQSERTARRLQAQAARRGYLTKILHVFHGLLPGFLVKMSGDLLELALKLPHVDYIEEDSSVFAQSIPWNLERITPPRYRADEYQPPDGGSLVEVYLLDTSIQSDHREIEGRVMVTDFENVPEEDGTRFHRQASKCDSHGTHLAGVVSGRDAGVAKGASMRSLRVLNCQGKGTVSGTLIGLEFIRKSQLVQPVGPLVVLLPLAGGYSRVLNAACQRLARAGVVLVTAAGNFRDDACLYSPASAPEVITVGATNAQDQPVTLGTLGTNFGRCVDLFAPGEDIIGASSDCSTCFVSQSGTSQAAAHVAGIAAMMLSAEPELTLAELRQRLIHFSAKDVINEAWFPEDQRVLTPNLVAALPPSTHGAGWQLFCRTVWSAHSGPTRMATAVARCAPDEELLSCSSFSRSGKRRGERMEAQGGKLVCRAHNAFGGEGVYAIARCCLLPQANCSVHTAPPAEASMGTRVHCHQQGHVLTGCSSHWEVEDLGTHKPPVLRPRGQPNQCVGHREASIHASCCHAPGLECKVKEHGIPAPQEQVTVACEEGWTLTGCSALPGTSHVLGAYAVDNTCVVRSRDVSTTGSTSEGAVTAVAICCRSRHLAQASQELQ
Experimental: Binding affinities of monoclonal antibodies for PCSK9 were estimated using Surface Plasmon Resonance (SPR) on the ProteOn XPR36 (Bio-Rad). Biotinylated antibody was immobilized at progressively increasing densities to the surface of Neutravidin (NLC) Chips. A dilution series of human PCSK9 prepared in 1×HBS-EP+Buffer (10 mM Hepes; 150 mM NaCl; 3 mM EDTA, 0.05% Polysorbate 20; pH 7.6 at 25° C.) purchased from Thermo Scientific and supplemented with 0.2 mg/mL Bovine Serum Albumin (BSA) from Jackson ImmunoResearch and 0.005% sodium azide from VWR was used to query the antibodies. At our chosen concentrations of antigen (˜0.08 μg/mL-6.7 μg/mL) association times of 4 minutes and dissociation times of 30-120 minutes were used with the ProteOn Manager Software (v3.1.0.6, Bio-Rad) to group and fit data using a 1:1 Langmuir binding model. Surfaces were regenerated between analyte queries and after binding antibody to the surface using 10 mM Glycine pH 2.0. Data across 4 different densities were averaged and a single KD and standard propagation of error calculated for each antibody.
With B1 the Kd was 0.04 nM, the koff was 3.71e-05 s⁻¹ and the kon was 928000 M⁻¹ s⁻¹.
B2 gave a Kd of 0.09 nM, a koff of 6.16e-05 s⁻¹ and a kon of 684000 M⁻¹ s⁻¹.
Work on B3 yielded a Kd of 0.61 nM, a koff of 0.000354 s⁻¹ and a kon of 580000 M⁻¹ s⁻¹.
In the case of B4, the Kd is reported as 0.49 nM, the koff is reported as 0.000259 s⁻¹ and the kon is reported as 529000 M⁻¹ s⁻¹.
